What was measured:
[1] = tested on: rats with dorsal hemisection (CST transection); assay: Functional recovery after spinal cord transection in rats (BBB, stride length; Example 30); type: in vivo, rat
Protocol: Briefly, female Long Evans rats (7 weels old; Charles River, Wilmington, Mass., USA) were anesthetized using 25 mg/kg midazolam i.p. (Abott Laboratories, Chicago, Ill., USA) and 2-3% fluothane (Baxter, Deerfield, Ill., USA) in O2 and a dorsal laminectomy performed at spinal level T6 and T7. General anesthesia wa maintained at 1.5-2% fluothane in O2 A dorsal hemisection was performed completely interrupting the main dorsomedial and the mino dorsplateral corticospinal tract (CST) components. A microscapel was used to sterotaxically transect the cord at a depth of 1.8 mm from the surface of the cord. Immediately after CST transection, an intrathecal catheter was inserted into the subarachnoid space at T7 and connected to a primed mini-osmotic pump inserted into the subcutaneous space. […] Functional recovery was assessed using the BBB openfield scoring method (Basso et al., J. Neurotrauma 12:1-21 (1995)) the following day and weekly thereafter.
A discriminating point on the BBB score is a score of 14, corresponding to consistent weight supported planter steps and consistent hindlimb-forelimb coordination.

[2] = tested on: rats with CST transection; assay: BDA-labeled axon counts caudal to spinal cord transection in rats (Example 31); type: in vivo, rat; conditions: 15 mm caudal to the injury site
Protocol: Treatment with NgR(310)ecto-Fc or combined treatment with MP and NgR(310)ecto-Fc enhanced axonal plasticity/regeneration after spinal cord transection. Briefly, for histological tracing of the CSTs, 2 weeks after CST transection animals were re-anesthetized and an incision made in the scalp. The area around the skin incision was injected with a local anesthetic, the left sensorimotor cortex exposed via a craniotomy and 7 μL 10% biotin dextran amine (BDA; 10,000 MW; Molecular Probes, Eugene, Oreg., USA) in PBS injected using a nanoliter injector and micro4 controller at 12 points 0-3.5 mm posterior to Bregma and […] lateral to the midline at a depth of 1 mm below the surface of the cortex. In some instances, the CST was labeled bilaterally using the same procedure.
At 28 days after CST transection, the rats were anesthetized with inactin (100-110 mg/kg i.p.) and transcardially perfused with heparinized saline (100 ml, 10 iu heparin) followed by 4% paraformaldehyde (150 ml). […]
Frozen sections (50 μm) were serially cut and stained with strepavidin-conjugated AlexaFluor-594 (1:200; Molecular Probes) to visualize labeled CST axons. […] Every eighth section, i.e., sections 400 μm apart, was counted for each animal at each level of the cord and the values were expressed as mean number of axons per section.

[3] = tested on: chick dorsal root ganglion neurons, myelin-induced neurite outgrowth inhibition; assay: Neurite outgrowth of embryonic day 13 chick DRG neurons on myelin (Example 29); type: cell-based; conditions: 8 μM NgR(310)ecto-Fc; MP 10 μg/nl as printed
Protocol: In investigating combined treatment with methyprednisolone (MP) and NgR(310)ecto-Fc for spinal cord injury (SCI), we sought to verify that these reagents have independent mechanisms of action. Briefly, myelin was dried overnight in poly-L-lysine-precoated plates (Becton Dickinson, Bedford, Mass., USA) at 80 or 400 ng/well (2.5 and 12.7 ng/mm^2, respectively). Wells were then coated with 10 µg/ml laminin (Calbiochem, La Jolla, Calif., USA) for 1 hour at foom temperature (22-24 C). Embryonic day 13 chick dorsal root ganglion neurons were dissociated and plated for 6-8 hours as previously described (GrandPre et al., 2000; Fournier et al., 2001). Neurons were treated with 8 μM NgR(310)ecto-Fc in the presence or absence of 10 μg/nl MP (Pharmacia, Kalamazoo, Mich., USA) for the entire outgrowth period. Neurons were then fixed and stained with βIII tubulin antibody (Covance, Princeton, N.J., USA) and neurite outgrowth was quantified using an automated cellular imaging and analysis system (Axon Instrument, Union City, Calif.; USA). Neurite outgrowth per cell was normalized to the average of duplicate control wells for each experiment (n=3). […] These in vitro data support the hypothesis that MP and NgR(310)ecto-Fc will enhance SCI recovery in a sequentially effective manner.

B1: NgR(310)ecto-Fc: ectodomain of the rat NgR1 (27-310) fused to a rat IgG (protein)
chain: PCPGACVCYNEPKVTTSRPQQGLQAVPAGIPASSQRIFLHGNRISYVPAASFQSCRNLTILWLHSNALAGIDAAAFTGLTLLEQLDLSDNAQLRVVDPTTFRGLGHLHTLHLDRCGLQELGPGLFRGLAALQYLYLQDNNLQALPDNTFRDLGNLTHLFLHGNRIPSVPEHAFRGLHSLDRLLLHQNHVARVHPHAFRDLGRLMTLYLFANNLSMLPAEVLVPLRSLQYLRLNDNPWVCDCRARPLWAWLQKFRGSSSGVPSNLPQRLAGRDLKRLATSDLEGCA
modifications: left off: a dimerising Fc or GST
notes: ectodomain of the rat NgR1 (27-310) fused to a rat IgG
- BBB scores normalized to day 2 ([1]; 2, 3 and 4 weeks after SCI): significant improvement
- mean stride length vs controls ([1]; 4 weeks after SCI): significantly improved
- Mean BBB score ([1]; after 4 weeks): 14.8±0.24
- frequency of rats with BBB score of 14 or greater (consistent plantar stepping and coordinated movement) ([1]; by 4 weeks): 100%
- number of BDA-labeled axons [2]: significantly greater numbers
- effect on neurite outgrowth on a myelin substrate [3]: reverse the inhibition

— US9228015B2, “Nogo receptor antagonists and methods of increasing neurite outgrowth” (Biogen Idec MA Inc., priority 2006, dated 2016)
